Test [1] addresses T1, 1-27 CD3-Fc (N-terminal amino acids 1-27 of the mature human CD3 epsilon chain fused to the hinge and Fc … (human)).
T1 construct: The synthetic gene also codes a 19 amino acid immunoglobulin leader; also called 27 aa huCD3E; human CD3 epsilon (aa 1-27)- Fc fusion protein
Description: SPR (Biacore 2000), 1-27 CD3-Fc coupled to CM5 chip, Langmuir model. A general note: In SPR one partner is held on a chip, and binding of the other changes the refractive index at the surface.

The target in test [2] is T2, human CD3 (epsilon) on human T cells (HPB-ALL cell line, human PBMC) (human, UniProt P07766 23-207).
T2 construct: whole, on cells; also called native CD3
T2 sequence (P07766 23-207): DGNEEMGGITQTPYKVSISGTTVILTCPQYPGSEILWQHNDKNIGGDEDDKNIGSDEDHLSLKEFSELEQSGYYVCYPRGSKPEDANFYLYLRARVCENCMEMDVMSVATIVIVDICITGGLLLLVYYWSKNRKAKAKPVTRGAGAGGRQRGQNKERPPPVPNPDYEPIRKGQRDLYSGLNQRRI
The test can be described thus: FACS, HPB-ALL. In general terms: Flow cytometry measures light scatter and fluorescence of single cells or particles in a stream.

The target in test [3] is T1, 1-27 CD3-Fc (N-terminal amino acids …). The test can be described thus: ELISA, captured 1-27 CD3-Fc, periplasmic scFv. Background: In an ELISA, binding on a coated surface is turned into a signal by an enzyme label.
The target in test [4] is T3, 1-27 CD3-EpCAM, squirrel monkey 27 mer (Saimiri sciureus CD3 epsilon 1-27, Flag tag, cynomolgus EpCAM) (Saimiri sciureus; cynomolgus monkey).
T3 construct: On transfected cells
T3 chain: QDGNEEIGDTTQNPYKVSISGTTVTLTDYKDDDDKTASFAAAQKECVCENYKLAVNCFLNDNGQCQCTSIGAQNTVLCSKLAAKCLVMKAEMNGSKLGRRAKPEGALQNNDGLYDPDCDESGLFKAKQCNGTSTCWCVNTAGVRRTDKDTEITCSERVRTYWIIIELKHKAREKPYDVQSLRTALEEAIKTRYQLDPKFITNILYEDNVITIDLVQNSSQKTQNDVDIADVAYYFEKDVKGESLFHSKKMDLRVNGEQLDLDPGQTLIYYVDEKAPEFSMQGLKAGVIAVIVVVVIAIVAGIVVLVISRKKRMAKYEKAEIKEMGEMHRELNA
Description: FACS, 293-HEK transfectant.

Test [5] concerns the target T4, 1-27 CD3-EpCAM, human 27 mer (N-terminal amino acids 1-27 of human CD3 epsilon, Flag tag, cynomolgus EpCAM) (human; cynomolgus monkey).
T4 chain: T3 chain with I7M, D9G, T10I, N13T, T25I
Description: FACS, 293-HEK transfectant.

Test [6] has as its target T5, 1-27 CD3-EpCAM, swine 27 mer (Sus scrofa CD3 epsilon 1-27, Flag tag, cynomolgus EpCAM) (Sus scrofa; cynomolgus monkey).
T5 construct: Negative control, on transfected cells
T5 chain: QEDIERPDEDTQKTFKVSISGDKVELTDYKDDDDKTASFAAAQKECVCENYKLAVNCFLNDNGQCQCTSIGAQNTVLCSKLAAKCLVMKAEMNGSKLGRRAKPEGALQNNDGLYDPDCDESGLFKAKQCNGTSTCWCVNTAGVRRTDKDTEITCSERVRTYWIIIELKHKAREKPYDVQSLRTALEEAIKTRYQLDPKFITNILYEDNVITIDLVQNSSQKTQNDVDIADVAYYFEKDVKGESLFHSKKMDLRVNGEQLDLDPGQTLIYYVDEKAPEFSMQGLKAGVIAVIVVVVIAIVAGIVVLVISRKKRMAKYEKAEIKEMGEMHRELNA
The test can be described thus: FACS on transfected 293-HEK cells.

Substitutions are numbered along the chain they refer to. Names and notes keep the numbering of the source.

A word on the Kd: it is the constant that tells how readily two partners part at equilibrium.

B1: EGFR-21-63 LH x A2J HLP (bispecific antibody)
chain: DIVLTQSPASLPVSLGQRATISCRASQSVSSSTYSYIHWYQQKPGQPPKLLITYASNLESGVPARFSGSGSGTDFTLDIHPVEEDDSSTYYCQHSWEIPFTFGSGTKLEIKGGGGSGGGGSGGGGSQVQLQQSGPDLVKPGASVKMSCKASGHTFTDCVIIWVKQRAGQGLEWIGQIYPGTGRSYYNEIFKGKATLTADKSSNTVHIQLSSLTSEDSAVYFCALSTLIHGTWFSYWGQGTLVTVSSGGGGSEVQLLESGGGLVQPGGSLKLSCAASGFTFNVYAMNWVRQAPGKGLEWVARIRSKYNNYATYYADSVKKRFTISRDDSKNTAYLQMNNLKTEDTAVYYCVRHGNFGNSYLSWWAYWGQGTLVTVSSGGGGSGGGGSGGGGSELVVTQEPSLTVSPGGTVTLTCRSSTGAVTSGYYPNWVQQKPGQAPRGLIGATDMRPSGTPARFSGSLLGGKAALTLSGVQPEDEAEYYCALWYSNRWVFGGGTKLTVL
notes: plus C-terminal His6 tag; also called EGFR LH x A2J HLP
As to B1, the Kd in test [1] was 0.249 µM.

B2: EGFR-21-63 LH x E2M HLP (bispecific antibody)
chain: B1 chain with V282G, K319E, G353R, W363F
notes: plus C-terminal His6 tag; also called EGFR LH x E2M HLP
In test [1], B2 gave a Kd of 2.46 µM.

B3: MCSP-G4 HLP x E2M HLP (bispecific antibody)
chain: QVQLVQSGAEVKRPGASMKVSCKASGYTFTNYYIHWVRQAPGQGLEWMGWINPNSGATNYAQKFQGRVTMTRDTSTSTVYMELSSLRSEDTAVYYCAKSWVSWFASWGQGTLVTVSSGGGGSGGGGSGGGGSELVMTQSPDSLAVSLGERATINCKSSQSVLNSSNNRNYLAWYQQKPGQPPKLLIYWASTRESGVPDRFSGSGSGTDFTLTISGLQAEDVAVYYCQQHYSTPFTFGPGTKVDIKSGGGGSEVQLLESGGGLVQPGGSLKLSCAASGFTFNGYAMNWVRQAPGKGLEWVARIRSKYNNYATYYADSVKERFTISRDDSKNTAYLQMNNLKTEDTAVYYCVRHRNFGNSYLSWFAYWGQGTLVTVSSGGGGSGGGGSGGGGSELVVTQEPSLTVSPGGTVTLTCRSSTGAVTSGYYPNWVQQKPGQAPRGLIGATDMRPSGTPARFSGSLLGGKAALTLSGVQPEDEAEYYCALWYSNRWVFGGGTKLTVL
notes: plus C-terminal His6 tag
As to B3, in test [2], the binding result is recorded as “binds”.

B4: A2J HLP single-chain antibody (scFv)
scFv: EVQLLESGGGLVQPGGSLKLSCAASGFTFNVYAMNWVRQAPGKGLEWVARIRSKYNNYATYYADSVKKRFTISRDDSKNTAYLQMNNLKTEDTAVYYCVRHGNFGNSYLSWWAYWGQGTLVTVSSGGGGSGGGGSGGGGSELVVTQEPSLTVSPGGTVTLTCRSSTGAVTSGYYPNWVQQKPGQAPRGLIGATDMRPSGTPARFSGSLLGGKAALTLSGVQPEDEAEYYCALWYSNRWVFGGGTKLTVL
notes: Crude periplasmic preparation, Flag and His6 tags
In the case of B4, in test [3], the binding result is listed as “binds”.

B5: E2M HLP single-chain antibody (scFv)
scFv: B4 scFv with V31G, K68E, G102R, W112F
notes: as for B4
On to B5, for which the binding result in test [4] is reported as “binds”; in test [5], “binds”; in test [3] it was “binds”; in test [6], “no binding”.

Source of the values: patent EP3461842A1 (Amgen Research (Munich) GmbH, dated 2019).
